Source: US8859223B1, “Compositions and methods for imaging beta-secretase activity in living cells and organisms” (Duke University, priority 2012, dated 2014)
Square brackets hold non-standard residues; d marks the D form. Ends that are not written are not given here. 2Thi = N[C@@H](Cc1cccs1)C(=O)O; Nva = CCC[C@H](N)C(=O)O

Biological target: T1, BACE (Homo sapiens, UniProt P56817)
Assay: Evaluation of peptides as BACE substrates (percent cleavage by LC-MS)
Assay type: biochemical
Conditions: 10 hr incubation with BACE enzyme, determined by LC-MS
Procedure: In order to evaluate a range of peptide amino acid sequences as BACE substrates for the probes, the peptides shown below in Table II were incubated with BACE enzyme under conditions suitable for enzyme activity and the percent cleavage after 10 hr was determined by LC-MS. Thus, in addition to SEQ ID NO: 1 present in β-MAP, the peptide sequences corresponding to SEQ ID NO's: 2-6 and 10-11 can also be useful as BACE substrates in the BACE probes of the present disclosure. For example, the specific BACE substrate sequence can be chosen based on the level of cleavage desired for a particular use for which the probe will be utilized. In can be envisioned that a higher or a lower amount of BACE probe cleavage could be desirable based on the different uses of the BACE probes.

T1 sequence (P56817 46-501): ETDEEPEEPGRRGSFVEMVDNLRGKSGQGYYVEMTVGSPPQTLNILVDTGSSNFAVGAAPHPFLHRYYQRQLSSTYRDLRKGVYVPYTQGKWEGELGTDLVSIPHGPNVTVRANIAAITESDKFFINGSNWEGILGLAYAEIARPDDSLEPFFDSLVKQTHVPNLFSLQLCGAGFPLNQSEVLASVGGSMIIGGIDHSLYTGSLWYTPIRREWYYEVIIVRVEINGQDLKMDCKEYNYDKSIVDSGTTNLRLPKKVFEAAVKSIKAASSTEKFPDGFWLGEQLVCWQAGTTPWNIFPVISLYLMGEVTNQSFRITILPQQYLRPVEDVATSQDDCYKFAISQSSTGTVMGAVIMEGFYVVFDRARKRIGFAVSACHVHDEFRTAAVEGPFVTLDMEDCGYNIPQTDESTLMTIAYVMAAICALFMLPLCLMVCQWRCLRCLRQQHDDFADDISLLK

Substance	Percent Cleavage after 10 hr Incubation with BACE
EVNL-DAHF (EVNLDAHF) [BACE substrate polypeptide]	50%
EIDL-MVLD (EIDLMVLD) [BACE substrate polypeptide]	20%
EVNL-SSHD (EVNLSSHD) [BACE substrate polypeptide]	3.5%
EI(Thi)(Thi)-(Nva)AHF (EI[2Thi][2Thi][Nva]AHF) [BACE substrate polypeptide with unnatural amino acids thienyl and norvaline]	25%

Next, values leading:

Percent Cleavage after 10 hr Incubation with BACE	Substance
Not Detected	ASNL-DAHF (ASNLDAHF) [peptide evaluated as BACE substrate]
0.5%	APSL-DAHF (APSLDAHF) [peptide evaluated as BACE substrate]
50%	EVNL-DAEF (EVNLDAEF) [BACE substrate polypeptide]
85%	EVNF-EVEF (EVNFEVEF) [BACE substrate polypeptide]
5%	EIDL-SSHD (EIDLSSHD) [BACE substrate polypeptide]
1%	DETL-DAHF (DETLDAHF) [peptide evaluated as BACE substrate]

Biological target: T1, BACE
Assay: not given
Conditions: compared to wild type; cited from earlier work

Substance	increase in Kcat/KM
Swedish mutant APP: amyloid precursor protein with the Swedish mutation	60 fold
